Measured values published in patent US6413750B1, “(R)-specific alcohol dehydrogenases from lactobacillus with improved catalytic activity using an NAD+ substrate” (Forschungszentrum Jülich GmbH, priority 1998, dated 2002).
Several values for one entry are separate records, joined by “and”; a condition that tells them apart may be missing. Equal values may be shown once.

Tests used:
[1] = Temperature stability (residual activity after incubation at various temperatures); assay type: physicochemical, Lactobacillus brevis
[2] = Kinetic data for the reduced coenzyme NADH (reduction of acetophenone); assay type: biochemical, Lactobacillus brevis
Protocol: (§1) In this N-terminal sequence certain basicity-relevant amino acids were exchanged by established genetic engineering devices and the changes in the acceptance of NAD^+ were determined basically with two values, the KM value and the kcat value. The KM value (Michaelis-Menten-constant [Mol/L]) can be considered to be a measure for the affinity of the co-enzyme to the enzyme. Preferably, the KM value is as small as possible. The kcat value (Mol formed product/mol enzyme×sec) is a measure for the conversion, it should be as high as possible. A combined value, which takes both values into consideration is the quotient kcat/KM. This should be preferably≧20 for obtaining an enzyme suitable for preparative purposes.
(§2) The successive changes of the mutated enzymes were proven by the determination of the kinetic parameters for the co-enzyme NAD^+, NAPD^+, NADH and NADPH by means of the corresponding kinetic parameters for the ketone substrate (acetophenone) or, respectively, by the oxidation reaction for the alcohol (phenylethanol). Furthermore, maintenance of the enantioselectivety was examined using the example of reduction of acetophenon. In addition, temperature-optima and stability, pH optima and stability and the iso-electric point were determined and compared with the corresponding data for the non-mutated wild-type enzyme.

[3] = Batchwise reduction of acetophenone with coenzyme regeneration, enantioselectivity by gas chromatography; assay type: biochemical, Lactobacillus brevis
Protocol: In this case, 960 μl triethanolamine buffer, 50 mM, pH 7.0 with 11 mM acetophenon, 10 μl magnesium chloride (100 mM start solution); 25 μl NADP^+ (10 mM start solution), 9.4μl isopropanol, and 1 U alcohol dehydrogenase were used.

[4] = Isoelectric point by isoelectric focussing; assay type: physicochemical, Lactobacillus brevis; settings: pH
Protocol: The isoelectric point (IP) is determined by isoelectric focussing (IEF) to be at pH 4.28. This is noteworthy particularly in comparison with the mutant 2 (see example 4). With the mutant 2, the IP is determined at 4.65 despite the fact that, in each of the two mutants, the same type of aminoacid (lysine) was exchanged; in mutant 1, it was the lysine-45 (to isoleucine) and in mutant 2, it was the lysine-48 (to methionine).

[5] = Kinetic data for the oxidized coenzyme NAD+ (oxidation of phenylethanol); assay type: biochemical, Lactobacillus brevis; settings: for Kcat value / Km: coenzyme NAD+
Protocol: as §1, §2

[6] = Kinetic data for the reduced coenzyme NADPH (reduction of acetophenone); assay type: biochemical, Lactobacillus brevis
Protocol: as §1, §2

[7] = Kinetic data for the oxidized coenzyme NADP+ (oxidation of phenylethanol); assay type: biochemical, Lactobacillus brevis
Protocol: as §1, §2

[8] = pH optimum of enzyme activity; assay type: biochemical, Lactobacillus brevis; settings: for activity at pH 8.0 compared with optimum: oxidative direction
Protocol: For determining the optimal pH value, the following buffers were used: pH 4.5=Na-acetate; pH 5.0 and 5.5=Na-acetate; pH 6.0 and 6.5=Kpi or MES; pH 7.0 and 7.5=Kpi or TEA; pH 8.0 and 8.6=Tris; pH 9.0=Bicine. All buffers were used in a concentration of 100 mM. For the determination of the reductive reaction 10 mM acetophenon was added. The concentrations of NADP/NAD were each 2 mM. The concentration of NADH/NADPH was each 0.25 mM. For measurement, 970 μl of the respective buffer solution, which already included substrate at the desired concentration, was mixed with 20 μl of the start solution with the desired co-enzyme. The reaction was started with 10 μl enzyme. the dilution factor depended on the activity, it was chosen in the range of 1 to 3 U/ml.

[9] = pH stability (residual activity after incubation at various pH values); assay type: physicochemical, Lactobacillus brevis
Protocol: The pH stability is expressed as residual activity after a 25 hour incubation period at various pH values, the same buffers were used as for the determination of the pH optima. 45 μl of the respective buffer were mixed with 5 μl of the enzyme solution and incubated at room temperature. Samples were taken after 30 min, 60 min., 6 hours and 25 hours.

[10] = Temperature optimum of enzyme activity; assay type: biochemical, Lactobacillus brevis
Protocol: The optimal temperature was determined for reductive reactions at pH 7.0 with the two coenzymes NADH and NADPH to be 55° C. in both cases. The temperature stability was determined as residual activity after 25 h incubation at various temperatures. At 37° C., still 95% reactivity was obtained; at 42° C. still 34%.

[11] = Standard enzyme test with crude extract (acetophenone reduction / phenyl ethanol oxidation); assay type: biochemical, Lactobacillus brevis
Protocol: In the standard enzyme test for reduction of acetophenone, with NADPH 0.032 U/mg (0.318 U/ml, 9.75 mg protein/ml) and with NADH 0.47 U/mg (4.61 U/ml; 9.75 mg protein/ml) were measured. In the reverse reaction (alcohol-oxidation) with phenyl ethanol, with NAD^+ a specific activity of 1.1 U/mg (10.8 U/ml); 9.75 protein/ml) were measured.

[12] = oxidation of phenyl ethanol with NAD+
[13] = reduction of acetophenone with NADH
[14] = reduction of acetophenone with NADPH

Substance | Kcat value [2] [s⁻¹] | Km [2] | enantioselectivity: isomer of phenylethanol formed [3] | isoelectric point [4] | Kcat value [5] [s⁻¹] | Km [5] | Kcat value [6] [s⁻¹] | Km [6] [µM] | Kcat value [7] [s⁻¹] | Km [7] [µM] | further results
mutant 1/1: L. brevis ADH mutant with exchanges A9G, R38L, K45M (SEQ ID NO 17) (SNRLDGKVGIITGGTLGIGLAIATKFVEEGAKVMITGLHSDVGEMAAKSV; OTHER INFORMATION: mutant 1/1) | 10.3 | 188 µM | only the (R) isomere of phenyl ethanol | 4.85 | 33.3 | 500 µM and 502 µM | 166.4 | 352 | 33.3 | 502 | residual activity ([1]; 25 h incubation at 25° C.): 100%; residual activity ([1]; 25 h incubation at 30° C.): 59%; selectivity (kcat/KM) for NAD+ in comparison with the value for NADP+ ([5]; kcat/KM NAD+ as percent of kcat/KM NADP+): 100%
mutant 2/2: L. brevis ADH mutant with exchanges A9G, R38L, H39L, K48M (SEQ ID NO 19) (SNRLDGKVGIITGGTLGIGLAIATKFVEEGAKVMITGLLSDVGEKAAMSV; OTHER INFORMATION: mutant 2/2) | 33.6 | ~70 µM and 70 µM | the (R) isomere of phenylethanol only | about 4.47 | 23.2 | 960 µM and 955 µM | 101.1 | 370 | 30.8 | 143 | residual activity ([1]; storage 6 h at 30° C.): 67%; residual activity ([1]; storage 6 h at 37° C.): 7%; activity at pH 8.0 compared with optimum ([8]; NAD+): 61%; activity at pH 8.0 compared with optimum ([8]; NADP+): 77%; activity at pH 7.0 compared with optimum ([8]; reduction of acetophenone with NADH, pH 7.0): 6%; residual activity ([9]; 6 h storage at pH 7.0): 100%; residual activity ([9]; 6 h storage at pH 8.5): 58%; activity at 60° C. relative to optimum ([10]; NADH, 60° C.): 70%; activity at 50° C. relative to optimum ([10]; NADPH, measured at 50° C.): 95%
mutant 2/3: L. brevis ADH mutant with exchanges A9G, G37D, R38L, K48M (SEQ ID NO 20) |  |  |  |  |  |  |  |  |  |  | activity [11, 12]: 10.8 U/ml; specific activity [11, 12]: 1.1 U/mg; activity ([11]; oxidation of phenyl ethanol with NADP+): no activity; activity [11, 13]: 4.61 U/ml; specific activity [11, 13]: 0.47 U/mg; activity [11, 14]: 0.318 U/ml; specific activity [11, 14]: 0.032 U/mg
